Usually Kd stands for the constant that tells how readily two partners part at equilibrium. Broadly, the stoichiometry N is the number of molecules, sites or subunits per partner or assembly.

Like-named read-outs stand apart in the source and are kept apart here.

In data set [1] the target is T1, SopB(155-323) (Escherichia coli F plasmid, UniProt P62558 155-323).
T1 sequence: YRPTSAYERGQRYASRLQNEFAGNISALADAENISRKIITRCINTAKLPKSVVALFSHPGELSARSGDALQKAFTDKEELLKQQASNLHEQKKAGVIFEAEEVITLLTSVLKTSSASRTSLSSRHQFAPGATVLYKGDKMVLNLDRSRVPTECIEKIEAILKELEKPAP
Put plainly: X-ray crystallography.

In data set [2] the target is T2, SopB FL (Escherichia coli F plasmid, UniProt P62558 1-323).
T2 sequence: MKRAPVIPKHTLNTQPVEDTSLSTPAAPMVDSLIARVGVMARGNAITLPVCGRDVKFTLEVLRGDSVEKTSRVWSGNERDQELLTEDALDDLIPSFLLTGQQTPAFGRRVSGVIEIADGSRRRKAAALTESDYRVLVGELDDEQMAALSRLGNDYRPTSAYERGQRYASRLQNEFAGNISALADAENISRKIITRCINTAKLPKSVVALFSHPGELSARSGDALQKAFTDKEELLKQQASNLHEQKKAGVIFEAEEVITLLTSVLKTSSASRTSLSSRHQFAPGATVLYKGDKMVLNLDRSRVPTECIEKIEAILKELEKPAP
The data set can be described thus: X-ray crystallography.

For data set [3], the target named is T2, SopB FL. Put plainly: fluorescence polarization. Background: In fluorescence polarisation assays a small probe gives low polarisation when free and higher when bound to something large.
Data set [4] deals with the molecule itself. Put plainly: SEC.
Data set [5] concerns the molecule itself. Put plainly: SEC. This is another data set of the same source. (In general: In gel filtration, larger molecules generally elute earlier.)

B1: sopC 18mer 5-bromouracil (dsDNA)
DNA 1: CTGGGACCATGGTCCCAG
DNA 2: CTGGGACCATGGTCCCAG
modifications: 5-bromouracil substitutions (positions not given)
Regarding B1, the binding result in data set [1] and in data set [2] was “binds” each time.

B2: sopC 18mer (FP) (dsDNA)
DNA 1: CTGGGACCATGGTCCCAG
DNA 2: CTGGGACCATGGTCCCAG
In data set [3], B2 returned a Kd of 0.223 ± 0.044 µM.

B3: sopC 43mer (FP) (dsDNA)
DNA 1: GGTCTGATTATTAGTCTGGGACCACGGTCCCACTCGTATCGTC
DNA 2: GACGATACGAGTGGGACCGTGGTCCCAGACTAATAATCAGACC
The molecule B3 yielded a Kd in data set [3] of 0.324 ± 0.043 µM.

B4: SopB(275–323) (domain or fragment, F plasmid, UniProt P62558 275-323, looked up)
chain: LSSRHQFAPGATVLYKGDKMVLNLDRSRVPTECIEKIEAILKELEKPAP
Consider B4, for which the “stoichiometry N” value in data set [4] turned out to be 2.

B5: SopB(155–272) (domain or fragment, F plasmid, UniProt P62558 155-272, looked up)
chain: YRPTSAYERGQRYASRLQNEFAGNISALADAENISRKIITRCINTAKLPKSVVALFSHPGELSARSGDALQKAFTDKEELLKQQASNLHEQKKAGVIFEAEEVITLLTSVLKTSSASR
Turning to B5, the “stoichiometry N” value in data set [5] was 2.

The values above are taken from PMC2910045 (Nucleic Acids Research, 2010).
